Laboratory results as given in patent publication US20230103584A1 (BLACK BELT THERAPEUTICS, published 2023).
Values belong to the molecule of their own block, whether it stands above or below them.

Columns and labels:
[1] = target: Recombinant, Histidine-tagged extracellular domain of human CD38 (human) (UniProt P28907); assay: ForteBio BLI
[2] = target: T1, Cynomolgus monkey CD38 expressed on T cells / PBMC (Cynomolgus monkey, UniProt Q5VAN0 1-301); assay: flow cytometry on cynomolgus cells, gated on CD4-positive cells, secondary antibody staining
T1 construct: whole, on cells; also called cyno T cells; cynomolgus pan T cells
T1 sequence (looked up): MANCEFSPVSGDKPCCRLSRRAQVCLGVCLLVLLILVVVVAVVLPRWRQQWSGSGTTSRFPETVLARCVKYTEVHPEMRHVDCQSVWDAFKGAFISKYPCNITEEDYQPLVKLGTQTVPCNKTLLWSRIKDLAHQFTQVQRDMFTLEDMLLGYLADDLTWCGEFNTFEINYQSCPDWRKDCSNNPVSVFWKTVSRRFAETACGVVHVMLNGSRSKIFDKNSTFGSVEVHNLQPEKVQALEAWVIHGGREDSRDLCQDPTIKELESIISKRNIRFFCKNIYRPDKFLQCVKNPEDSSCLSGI

[3] = target: T2, Human CD38 expressed on cells (Daudi, Raji, Jurkat, human PBMC/T cells, Tregs, HEK-293T transfectants) (human, UniProt P28907 1-300); assay: cell-based or functional assay
T2 sequence: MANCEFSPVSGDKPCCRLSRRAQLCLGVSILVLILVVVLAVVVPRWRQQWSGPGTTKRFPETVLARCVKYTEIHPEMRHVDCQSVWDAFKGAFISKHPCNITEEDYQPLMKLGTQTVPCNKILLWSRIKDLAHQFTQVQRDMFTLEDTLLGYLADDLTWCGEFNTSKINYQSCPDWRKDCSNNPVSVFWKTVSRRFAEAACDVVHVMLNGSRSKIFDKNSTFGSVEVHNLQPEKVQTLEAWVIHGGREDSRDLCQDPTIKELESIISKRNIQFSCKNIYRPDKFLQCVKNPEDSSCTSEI

[4] = target: T1, Cynomolgus monkey CD38 expressed on T …; assay: flow cytometry on cynomolgus cells, gated on CD8-positive cells, secondary antibody staining
[5] = target: T2, Human CD38 expressed on cells (Daudi, …); assay: cell-based or functional assay; remark: listed apart in the source
[6] = target: T2, Human CD38 expressed on cells (Daudi, …); assay: cell-based or functional assay; remark: listed apart in the source
[7] = target: T2, Human CD38 expressed on cells (Daudi, …); assay: cell-based or functional assay; remark: listed apart in the source

Molecule: IB4, reference monoclonal agonistic mouse anti-human CD38 antibody
Kd [1]: 9 nM

B1: aCD38-b-348 (human IgG1) (antibody, V domains shown)
VH: QLQLQESGPGLVKPSETLSLTCTVSGGSISSSDYYWGWIRQPPGKGLEWIGSIYYSGSTYYNPSLKSRVTISVDTSKNQFSLKLSSVTAADTAVYYCARGQYSSGWYAYPFDMWGQGTMVTVSS
VL: EIVLTQSPGTLSLSPGERATLSCRASQSVRSSYLAWYQQKPGQAPRLLIYGASSRATGIPDRFSGSGSGTDFTLTISRLEPEDFAVYYCQQDGNVYTFGGGTKVEIK
notes: First made as IgG in yeast
EC50 (read off the curve) [2]: ~0.9 µg/mL
ADCC EC50, target Daudi cells (experiment 6) [3]: 0.00032 µg/mL
ADCC EC50, target Daudi cells (experiment 7) [3]: 0.0008 µg/mL
ADCC EC50, target Daudi cells (experiment 8) [3]: 0.00042 µg/mL
EC50 (read off the curve) [4]: ~0.9 µg/mL
CDC EC50, 10% complement, target Raji cells [5]: 0.3 µg/mL
CDC EC50, 10% complement, target Raji cells (repeat) [5]: 0.17 µg/mL
ADCC Max. % lysis [6]: 44%
CDC EC50, 10% complement, target Daudi cells (experiment 15) [7]: 0.17 µg/mL
CDC EC50, 10% complement, target Daudi cells (experiment 16) [7]: 0.34 µg/mL
CDC EC50, 10% complement, target Daudi cells (experiment 17) [7]: 0.26 µg/mL

B4: aCD38-b-348-m2 (antibody, IgG1, V domains shown)
VH: QLQLQESGPGLVKPSETLSLTCTVSGGSISSSDYYWGWIRQPPGKGLEWIGSIYYSGSTYYNPSLKSRVTISVDTSKNQFSLKLSSVTAADTAVYYCARGQYSSGWYAYPFDMWGQGTMVTVSS
VL: EIVLTQSPGTLSLSPGERATLSCRASQSVRSSYLAWYQQKPGQAPRLLIYGASSRATGIPDRFSGSGSGTDFTLTISRLEPEDFAVYYCQQDSNVYTFGGGTKVEIK
ADCC Max. % lysis [6]: 44%

B5: aCD38-b-348-m1 (antibody, IgG1, V domains shown)
VH: QLQLQESGPGLVKPSETLSLTCTVSGGSISSSDYYWGWIRQPPGKGLEWIGSIYYSGSTYYNPSLKSRVTISVDTSKNQFSLKLSSVTAADTAVYYCARGQYSSGWYAYPFDMWGQGTMVTVSS
VL: EIVLTQSPGTLSLSPGERATLSCRASQSVRSSYLAWYQQKPGQAPRLLIYGASSRATGIPDRFSGSGSGTDFTLTISRLEPEDFAVYYCQQEANVYTFGGGTKVEIK
ADCC Max. % lysis [6]: 38%

Second part, the molecule after the results:

ADCC Max. % lysis [6]: 39%
B2: aCD38-b-348-m3 (antibody, IgG1, V domains shown)
VH: QLQLQESGPGLVKPSETLSLTCTVSGGSISSSDYYWGWIRQPPGKGLEWIGSIYYSGSTYYNPSLKSRVTISVDTSKNQFSLKLSSVTAADTAVYYCARGQYSSGWYAYPFDMWGQGTMVTVSS
VL: EIVLTQSPGTLSLSPGERATLSCRASQSVRSSYLAWYQQKPGQAPRLLIYGASSRATGIPDRFSGSGSGTDFTLTISRLEPEDFAVYYCQQDANVYTFGGGTKVEIK

ADCC Max. % lysis [6]: 38%
B3: aCD38-b-348-m4 (antibody, IgG1, V domains shown)
VH: QLQLQESGPGLVKPSETLSLTCTVSGGSISSSDYYWGWIRQPPGKGLEWIGSIYYSGSTYYNPSLKSRVTISVDTSKNQFSLKLSSVTAADTAVYYCARGQYSSGWYAYPFDMWGQGTMVTVSS
VL: EIVLTQSPGTLSLSPGERATLSCRASQSVRSSYLAWYQQKPGQAPRLLIYGASSRATGIPDRFSGSGSGTDFTLTISRLEPEDFAVYYCQQEGNVYTFGGGTKVEIK
